According to the MegaScale stability set (Tsuboyama et al. 2023):

B1: 2K2A (parent)
chain: ELREAFRLYDKEGNGYISTDVMREILAELDETLSSEDLDAMIDEIDADGSGTVDFEEFMGVMT

Variants of: B1
Assay: folding stability dG (cDNA display proteolysis); higher = more stable
Conditions: PBS, room temperature

Variant	folding stability dG [kcal/mol]
ELREAFRLYDAEGNGYISTDVMREILAELDETLSSEDLDAMIDEIDADGSGTVDFEEFMGVMT [K11A]	1.74
ELREAFRLYDNEGNGYISTDVMREILAELDETLSSEDLDAMIDEIDADGSGTVDFEEFMGVMT [K11N]	1.4
ELREAFRLYDREGNGYISTDVMREILAELDETLSSEDLDAMIDEIDADGSGTVDFEEFMGVMT [K11R]	1.71
ELREAFRLYDWEGNGYISTDVMREILAELDETLSSEDLDAMIDEIDADGSGTVDFEEFMGVMT [K11W]	1.88
ELREAFRLYDCEGNGYISTDVMREILAELDETLSSEDLDAMIDEIDADGSGTVDFEEFMGVMT [K11C]	2.07
ELREAFRLYDYEGNGYISTDVMREILAELDETLSSEDLDAMIDEIDADGSGTVDFEEFMGVMT [K11Y]	1.63
ELREAFRLYDGEGNGYISTDVMREILAELDETLSSEDLDAMIDEIDADGSGTVDFEEFMGVMT [K11G]	1.03
ELREAFRLYDMEGNGYISTDVMREILAELDETLSSEDLDAMIDEIDADGSGTVDFEEFMGVMT [K11M]	1.77
ELREAFRLYDDEGNGYISTDVMREILAELDETLSSEDLDAMIDEIDADGSGTVDFEEFMGVMT [K11D]	0.997
ELREAFRLYDSEGNGYISTDVMREILAELDETLSSEDLDAMIDEIDADGSGTVDFEEFMGVMT [K11S]	1.74
ELREAFRLYDVEGNGYISTDVMREILAELDETLSSEDLDAMIDEIDADGSGTVDFEEFMGVMT [K11V]	2.1
ELREAFRLYDIEGNGYISTDVMREILAELDETLSSEDLDAMIDEIDADGSGTVDFEEFMGVMT [K11I]	2.01
ELREAFRLYDPEGNGYISTDVMREILAELDETLSSEDLDAMIDEIDADGSGTVDFEEFMGVMT [K11P]	1.81
ELREAFRLYDQEGNGYISTDVMREILAELDETLSSEDLDAMIDEIDADGSGTVDFEEFMGVMT [K11Q]	1.72
ELREAFRLYDEEGNGYISTDVMREILAELDETLSSEDLDAMIDEIDADGSGTVDFEEFMGVMT [K11E]	1.36
ELREAFRLYDLEGNGYISTDVMREILAELDETLSSEDLDAMIDEIDADGSGTVDFEEFMGVMT [K11L]	2.13
ELREAFRLYDHEGNGYISTDVMREILAELDETLSSEDLDAMIDEIDADGSGTVDFEEFMGVMT [K11H]	1.69
ELREAFRLYDTEGNGYISTDVMREILAELDETLSSEDLDAMIDEIDADGSGTVDFEEFMGVMT [K11T]	1.94
ELREAFRLYDFEGNGYISTDVMREILAELDETLSSEDLDAMIDEIDADGSGTVDFEEFMGVMT [K11F]	1.82
ELREAFRLYDKEANGYISTDVMREILAELDETLSSEDLDAMIDEIDADGSGTVDFEEFMGVMT [G13A]	1.05
ELREAFRLYDKECNGYISTDVMREILAELDETLSSEDLDAMIDEIDADGSGTVDFEEFMGVMT [G13C]	1.5

Variant	folding stability dG [kcal/mol]
ELREAFRLYDKEDNGYISTDVMREILAELDETLSSEDLDAMIDEIDADGSGTVDFEEFMGVMT [G13D]	1.41
ELREAFRLKDKEGNGYISTDVMREILAELDETLSSEDLDAMIDEIDADGSGTVDFEEFMGVMT [Y9K]	0.775
ELREAFRLNDKEGNGYISTDVMREILAELDETLSSEDLDAMIDEIDADGSGTVDFEEFMGVMT [Y9N]	0.71
ELREAFRLMDKEGNGYISTDVMREILAELDETLSSEDLDAMIDEIDADGSGTVDFEEFMGVMT [Y9M]	1.43
ELREAFRLVDKEGNGYISTDVMREILAELDETLSSEDLDAMIDEIDADGSGTVDFEEFMGVMT [Y9V]	0.891
ELREAFRLSDKEGNGYISTDVMREILAELDETLSSEDLDAMIDEIDADGSGTVDFEEFMGVMT [Y9S]	0.532
ELREAFRLDDKEGNGYISTDVMREILAELDETLSSEDLDAMIDEIDADGSGTVDFEEFMGVMT [Y9D]	0.261
ELREAFRLRDKEGNGYISTDVMREILAELDETLSSEDLDAMIDEIDADGSGTVDFEEFMGVMT [Y9R]	1.32
ELREAFRLHDKEGNGYISTDVMREILAELDETLSSEDLDAMIDEIDADGSGTVDFEEFMGVMT [Y9H]	1.59
ELREAFRLEDKEGNGYISTDVMREILAELDETLSSEDLDAMIDEIDADGSGTVDFEEFMGVMT [Y9E]	0.654
ELREAFRLWDKEGNGYISTDVMREILAELDETLSSEDLDAMIDEIDADGSGTVDFEEFMGVMT [Y9W]	2
ELREAFRLLDKEGNGYISTDVMREILAELDETLSSEDLDAMIDEIDADGSGTVDFEEFMGVMT [Y9L]	2.07
ELREAFRLGDKEGNGYISTDVMREILAELDETLSSEDLDAMIDEIDADGSGTVDFEEFMGVMT [Y9G]	0.24
ELREAFRLCDKEGNGYISTDVMREILAELDETLSSEDLDAMIDEIDADGSGTVDFEEFMGVMT [Y9C]	1.94
ELREAFRLADKEGNGYISTDVMREILAELDETLSSEDLDAMIDEIDADGSGTVDFEEFMGVMT [Y9A]	1.56
ELREAFRLPDKEGNGYISTDVMREILAELDETLSSEDLDAMIDEIDADGSGTVDFEEFMGVMT [Y9P]	0.057
ELREAFRLIDKEGNGYISTDVMREILAELDETLSSEDLDAMIDEIDADGSGTVDFEEFMGVMT [Y9I]	1.31
ELREAFRLQDKEGNGYISTDVMREILAELDETLSSEDLDAMIDEIDADGSGTVDFEEFMGVMT [Y9Q]	0.85
ELREAFRLTDKEGNGYISTDVMREILAELDETLSSEDLDAMIDEIDADGSGTVDFEEFMGVMT [Y9T]	0.17
ELREAFRLFDKEGNGYISTDVMREILAELDETLSSEDLDAMIDEIDADGSGTVDFEEFMGVMT [Y9F]	1.59
ELREAFRYYDKEGNGYISTDVMREILAELDETLSSEDLDAMIDEIDADGSGTVDFEEFMGVMT [L8Y]	1.98
